Measured values taken from article PMC6021111, “Murine leukemia virus p12 tethers the capsid-containing pre-integration complex to chromatin by binding directly to host nucleosomes in mitosis” (PLoS Pathogens, 2018).

B1: Clathrin interactor 1: Q14677 (protein)
chain: MLNMWKVRELVDKATNVVMNYSEIESKVREATNDDPWGPSGQLMGEIAKATFMYEQFPELMNMLWSRMLKDNKKNWRRVYKSLLLLAYLIRNGSERVVTSAREHIYDLRSLENYHFVDEHGKDQGINIRQKVKELVEFAQDDDRLREERKKAKKNKDKYVGVSSDSVGGFRYSERYDPEPKSKWDEEWDKNKSAFPFSDKLGELSDKIGSTIDDTISKFRRKDREDSPERCSDSDEEKKARRGRSPKGEFKDEEETVTTKHIHITQATETTTTRHKRTANPSKTIDLGAAAHYTGDKASPDQNASTHTPQSSVKTSVPSSKSSGDLVDLFDGTSQSTGGSADLFGGFADFGSAAASGSFPSQVTATSGNGDFGDWSAFNQAPSGPVASSGEFFGSASQPAVELVSGSQSALGPPPAASNSSDLFDLMGSSQATMTSSQSMNFSMMSTNTVGLGLPMSRSQNTDMVQKSVSKTLPSTWSDPSVNISLDNLLPGMQPSKPQQPSLNTMIQQQNMQQPMNVMTQSFGAVNLSSPSNMLPVRPQTNALIGGPMPMSMPNVMTGTMGMAPLGNTPMMNQSMMGMNMNIGMSAAGMGLTGTMGMGMPNIAMTSGTVQPKQDAFANFANFSK
B2: Clathrin light chain A: P09496 (protein)
chain: MAELDPFGAPAGAPGGPALGNGVAGAGEEDPAAAFLAQQESEIAGIENDEAFAILDGGAPGPQPHGEPPGGPDAVDGVMNGEYYQESNGPTDSYAAISQVDRLQSEPESIRKWREEQMERLEALDANSRKQEAEWKEKAIKELEEWYARQDEQLQKTKANNRVADEAFYKQPFADVIGYVTNINHPCYSLEQAAEEAFVNDIDESSPGTEWERVARLCDFNPKSSKQAKDVSRMRSVLISLKQAPLVH

Test system: GST-p12_WT
Assay: SILAC-MS of proteins enriched with GST-p12_WT relative to GST
Type: binding, Mo-MLV
Conditions: for SDs from the mean: log2(GST-p12_WT, Heavy/GST, Light)
Excerpt: To test whether GST-p12 was acting like the p12 region of Gag, we used a global proteomic approach based on stable isotope labelling by amino acids in cell culture (SILAC)-mass spectrometry (MS) to look for host proteins that interact with GST-p12 [35, 36]. A schematic diagram of the workflow is illustrated in Fig 4A. Briefly, GST, GST-p12_mut14 and GST-p12_WT were transiently-expressed in 293T cells cultured in light (R0/K0), medium (R6/K4) and heavy (R10/K8) SILAC media, respectively. Next, lysates of nocodazole treated transfected cells were prepared, normalised and used for parallel pull-down assays with glutathione-sepharose beads. The eluates from the beads were then pooled in a 1:1:1 ratio and subjected to LC-MS/MS analysis. The experiment was performed using biological replicates to test reproducibility of the mass-spec hits. The pull-down assays for this experiment were performed using mitotic cell lysates to facilitate identification of any potential chromatin interactions that were previously missed.
After removal of obvious contaminants (e.g. keratin) and non-quantified hits, 948 and 879 proteins were identified in replicates 1 and 2 (R1 and R2) of the experiment respectively (the false discovery rate (FDR) was set at 5%). To select proteins enriched in the heavy-labelled (H) GST-p12_WT sample relative to the light-labelled (L) GST sample, we compared the log2(H/L) silac ratios of the mass-spectrometry hits. When plotted as a frequency distribution, the log2(H/L) ratios of each replicate fitted well to a normal distribution curve (R^2 ≥ 0.98), allowing the mean and standard deviation to be accurately estimated (Fig 4B). In this experiment, contaminants/non-specifically bound cellular proteins were assumed to cluster around the mean of the distribution. […] Twenty one such proteins were identified in R1 and 22 identified in R2 (Fig 4B Venn diagram). […] These proteins were then ranked based on normalised abundance in the group. In mass-spectrometry analysis, larger proteins are in general assigned higher scores. Therefore, to control for protein size, we divided the number of peptide spectral matches identified for each protein with its length and then normalised the values across the group (Fig 4C and 4D). When ranked this way, the clathrin heavy chain (CLTC), clathrin interactor 1 (CLINT1) and NEDD4-like E3 ubiquitin ligase (WWP2) were identified as the top three hits. […] The function of clathrin in MLV infection is unclear. […] Thus, clathrin binding may be relevant to the early stages of MLV replication and should be investigated further.
For SILAC-MS experiments, 293T cells were grown is media containing light (R0K0, ^12C-Arginine and ^12C-Lysine), medium (R6K4, ^13C-Arginine and Lysine-4,4,5,5-d4) or heavy (R10K8, ^13C+^15N-Arginine and ^13C+^15N-Lysine) versions of L-Arginine and L-Lysine amino acids (Pierce) for a minimum of 6 doublings before transient expression of GST-p12 proteins. After performing the glutathione-sepharose pull-down assays equivalent volumes of the beads eluates were pooled and submitted to the Bristol University Proteomics Facility for RP nano-LC-MS/MS analysis. This analysis was performed on an LTQ-Orbitrap Velos mass spectrometer in line with a Dionex Ultimate 3000 nanoHPLC system as described in [53].
Supplementary file ppat.1007117.s005.xlsx: S1 Table Results from the first SILAC-MS analysis. GST, Mo-MLV GST-p12_mut14 or GST-p12_WT were transiently-expressed in 293T cells cultured in light (R0/K0), medium (R6/K4) and heavy (R10/K8) SILAC media, respectively. Mitotic cell lysates were subsequently used for glutathione-sepharose bead pull-down assays. Bead eluates were pooled in a 1:1:1 ratio and then analysed by LC-MS/MS. […] (XLSX) Click here for additional data file.

Molecule | Normalised (PSMs/Length) (Replicate 1) | PSMs (Replicate 1) | PSMs/Length (Replicate 1) | Normalised (PSMs/Length) (Replicate 2) | PSMs (Replicate 2) | PSMs/Length (Replicate 2) | SDs from the mean (Replicate 2)
B1 | 26.4693 | 18 | 0.0288 | 22.9214 | 16 | 0.0256 | 13.1531
B2 | 7.412 | 2 | 0.008065 | 7.2207 | 2 | 0.008065 | 7.68
